Results on 1 protein are retold here after article PMC7554302, “The Reversible Non-covalent Aggregation Into Fibers of PGLa and Magainin 2 Preserves Their Antimicrobial Activity and Synergism” (Frontiers in Cellular and Infection Microbiology, 2020).

Where no end group is shown, it is not given here.

This series concerns the molecule itself. The series can be described thus: transmission electron microscopy + FTIR; negative-stain TEM of the samples fibrillated in Mueller-Hinton medium; FTIR of fibril pellets prepared in 50 mM phosphate buffer pH 7.4.

B1: magainin 2a (peptide)
peptide: GIGKFLHSAKKFGKAFVGEIMNS-NH2
notes: magainin 2, antimicrobial peptide of Xenopus laevis skin secretions, cut from the magainins precursor; Forms fibrils (many copies); source: synthetic peptide (solid-phase synthesis, Fmoc chemistry; reverse phase HPLC purified)
Regarding B1, the binding result was “binds”.
